# T1: human TIGIT expressed on the cell surface (human, UniProt Q495A1 22-244)
# T1 construct: whole, on cells; also called Jurkat PD-1^-TIGIT^+ cells; TIGIT^+ Jurkat cells
# T1 sequence (looked up): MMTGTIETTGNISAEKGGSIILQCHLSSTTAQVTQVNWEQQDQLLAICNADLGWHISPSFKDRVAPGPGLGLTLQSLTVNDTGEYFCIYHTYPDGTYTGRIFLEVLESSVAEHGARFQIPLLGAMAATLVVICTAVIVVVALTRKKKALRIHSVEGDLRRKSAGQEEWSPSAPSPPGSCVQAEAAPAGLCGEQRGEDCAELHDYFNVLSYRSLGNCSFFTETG
# T2: recombinant human TIGIT protein (human, UniProt Q495A1 22-141)
# T2 construct: In the Octet assay it was used biotinylated on streptavidin sensors or in solution; Construct and tags are not described; also called huTIGIT; human TIGIT antigen
# T2 sequence (looked up): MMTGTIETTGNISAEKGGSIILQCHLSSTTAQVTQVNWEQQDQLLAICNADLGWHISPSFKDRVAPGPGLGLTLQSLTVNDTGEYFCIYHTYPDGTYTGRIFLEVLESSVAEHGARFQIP
# T3: muTIGIT (mouse TIGIT, recombinant) (mouse (printed as 'mu'), UniProt P86176 29-148, limits assumed)
# T3 construct: Ligand in the BIAcore assay; The construct is not described
# T3 sequence (looked up): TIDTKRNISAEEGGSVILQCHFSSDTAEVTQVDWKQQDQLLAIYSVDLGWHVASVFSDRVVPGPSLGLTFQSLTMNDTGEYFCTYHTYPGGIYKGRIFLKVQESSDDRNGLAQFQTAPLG
# Tests used:
# [1] = target: T4, human PD-1 expressed on the cell surface of engineered Jurkat cells (human, UniProt Q15116 25-288); test: flow cytometry on PD-1^+ Jurkat cells, Experiment #2
# T4 construct: whole, on cells; also called Jurkat PD-1^+TIGIT^- cells; PD-1^+ Jurkat cells
# [2] = target: T4, human PD-1 expressed on the cell …; test: flow cytometry on PD-1^+ Jurkat cells (the reference itself)
# [3] = target: T4, human PD-1 expressed on the cell …; test: flow cytometry on PD-1^+ Jurkat cells, mean of two experiments
# [4] = target: T4, human PD-1 expressed on the cell …; test: cell-based or functional assay
# [5] = target: T4, human PD-1 expressed on the cell …; test: flow cytometry on PD-1^+ Jurkat cells, Experiment #1
# [6] = target: T1, human TIGIT expressed on the cell …; test: flow cytometry on TIGIT^+ Jurkat cells, Experiment #1
# [7] = target: T1, human TIGIT expressed on the cell …; test: flow cytometry on TIGIT^+ Jurkat cells, mean of two experiments
# [8] = target: T1, human TIGIT expressed on the cell …; test: cell-based or functional assay
# [9] = target: T1, human TIGIT expressed on the cell …; test: flow cytometry on TIGIT^+ Jurkat cells (the reference itself)
# [10] = target: T1, human TIGIT expressed on the cell …; test: flow cytometry on TIGIT^+ Jurkat cells, Experiment #2
# [11] = target: T1, human TIGIT expressed on the cell …; test: flow cytometry (MFI) on 293 cells overexpressing human TIGIT; Kd row of the table under the graph, the concentration axis is [nM]
# [12] = target: T5, cynomolgus TIGIT overexpressed on 293 cells (cynomolgus, UniProt A0A7N9I9V4 89-312); test: flow cytometry (MFI) on 293 cells overexpressing cynomolgus TIGIT; Kd row of the table under the graph, the concentration axis is [nM]
# T5 construct: whole, on cells
# [13] = target: T1, human TIGIT expressed on the cell …; test: flow cytometry (MFI) on 293 cells overexpressing human TIGIT
# [14] = target: T2, recombinant human TIGIT protein; test: SPR (BIAcore T200), PD-1/TIGIT DuetMab sample, huTIGIT as ligand
# Experimental: (§1) Binding experiments were carried out using a BIAcore T200 instrument (BIAcore).
# [15] = target: T6, cyTIGIT (cynomolgus TIGIT, recombinant) (cynomolgus, UniProt A0A7N9I9V4 89-209); test: SPR (BIAcore T200), PD-1/TIGIT DuetMab sample, cyTIGIT as ligand
# T6 construct: Ligand in the BIAcore assay; The construct is not described
# Experimental: as §1
# [16] = target: T3, muTIGIT (mouse TIGIT, recombinant); test: SPR (BIAcore T200), PD-1/TIGIT DuetMab sample, muTIGIT as ligand
# Experimental: as §1
# T5 sequence (A0A7N9I9V4 entry or part of it): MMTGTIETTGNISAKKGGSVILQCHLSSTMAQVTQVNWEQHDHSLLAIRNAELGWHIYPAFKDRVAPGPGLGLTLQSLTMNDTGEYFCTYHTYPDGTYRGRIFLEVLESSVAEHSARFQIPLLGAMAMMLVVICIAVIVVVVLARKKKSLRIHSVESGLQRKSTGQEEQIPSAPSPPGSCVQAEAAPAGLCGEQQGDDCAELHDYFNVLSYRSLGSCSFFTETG
# T6 sequence (A0A7N9I9V4 entry or part of it): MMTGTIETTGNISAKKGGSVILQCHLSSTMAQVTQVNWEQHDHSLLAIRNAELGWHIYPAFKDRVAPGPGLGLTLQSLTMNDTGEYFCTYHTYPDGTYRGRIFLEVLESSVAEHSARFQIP
# T4 sequence (Q15116 25-288, change not shown): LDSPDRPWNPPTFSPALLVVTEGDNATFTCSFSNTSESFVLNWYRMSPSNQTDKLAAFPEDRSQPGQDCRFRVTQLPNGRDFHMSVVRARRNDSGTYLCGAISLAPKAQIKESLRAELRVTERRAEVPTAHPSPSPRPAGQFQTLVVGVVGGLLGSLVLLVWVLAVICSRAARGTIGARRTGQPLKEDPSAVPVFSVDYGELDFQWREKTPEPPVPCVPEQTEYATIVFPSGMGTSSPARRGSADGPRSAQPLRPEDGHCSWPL
binder,measurement,setting,value
"monospecific anti-PD1 (LO115) bivalent mAb (antibody, V domains shown, Bivalent mAb; also called bivalent anti-PD-1 antibody; parental bivalent anti-PD-1 antibody) VH: EVQLVESGGGLVQPGGSLRLSCAASGFTFSDYGMHWVRQAPGKGLEWVAYISSGSYTIYSADSVKGRFTISRDNAKNSLYLQMNSLRAEDTAVYYCARRAPNSFYEYYFDYWGQGTTVTVSS VL: QIVLTQSPATLSLSPGERATLSCSASSKHTNLYWSRHMYWYQQKPGQAPRLLIYLTSNRATGIPARFSGSGSGTDFTLTISSLEPEDFAVYYCQQWSSNPFTFGQGTKLEIK",EC50,[1],0.985 nM
same,Fold Change vs. anti-PD-1 (mean EC50),[2],1 fold
same,EC50,[3],0.667 nM
same,"EC50 (nM), NFAT-luciferase reporter, Experiment #1",[4],1.93 nM
same,"EC50 (nM), NFAT-luciferase reporter, Experiment #2",[4],4.14 nM
same,Fold Change of Mean EC50 vs. Anti-PD-1,[4],1 fold
same,"Mean EC50 (nM), NFAT-luciferase reporter",[4],3.03 nM
same,EC50,[5],0.349 nM
"monospecific anti-TIGIT (VAR1) bivalent mAb (antibody, V domains shown, Bivalent mAb; also called anti-TIGIT mAb; bivalent anti-TIGIT antibody) VH: QVQLVESGGGVVQPGRSLRLSCAASGFTFSSYAMHWVRQAPGKGLEWVAVISYAGEVKYYADSVKGRFTISRDNSKNTLYLQMNSLRAEDTAVYYCARDPLPLHYYGMDVWGQGTTVTVSS VL: QSVLTQPPSASGTPGQRVTISCSGSSSNIGRRPVNWYQQLPGTAPKLLIYSQNQRPSGVPDRFSGSQSGTSASLAISGLQSEDEADYFCAVWDDIGRVLQLGGGTQLTVL",EC50,[6],0.092 nM
same,EC50,[7],0.119 nM
same,"EC50 (nM), NFAT-luciferase reporter, Experiment #1",[8],1.59 nM
same,"EC50 (nM), NFAT-luciferase reporter, Experiment #2",[8],2.85 nM
same,Fold Change of Mean EC50 vs. Anti-TIGIT,[8],1 fold
same,"Mean EC50 (nM), NFAT-luciferase reporter",[8],2.22 nM
same,Fold Change vs. anti-TIGIT (mean EC50),[9],1 fold
same,EC50,[10],0.147 nM
"VL WT + VH GL (VAR1 variant DuetMab) (bispecific antibody, V domains shown) VH 1: EVQLVESGGGLVQPGGSLRLSCAASGFTFSDYGMHWVRQAPGKGLEWVAYISSGSYTIYSADSVKGRFTISRDNAKNSLYLQMNSLRAEDTAVYYCARRAPNSFYEYYFDYWGQGTTVTVSS VL 1: QIVLTQSPATLSLSPGERATLSCSASSKHTNLYWSRHMYWYQQKPGQAPRLLIYLTSNRATGIPARFSGSGSGTDFTLTISSLEPEDFAVYYCQQWSSNPFTFGQGTKLEIK VH 2: QVQLVESGGGVVQPGRSLRLSCAASGFTFSSYAMHWVRQAPGKGLEWVAVISYAGEVKYYADSVKGRFTISRDNSKNTLYLQMNSLRAEDTAVYYCARDPLPLHYYGMDVWGQGTTVTVSS VL 2: QSALTQPRSASGNPGQRVTISCSGSSSNMGRRPVNWYQQIPGTAPKLLIYSQNQRPSGVPDRFSGSQSGTSASLTISGLQSEDEAEYFCAVWDDIGRVLQLGGGTQLAVL",Kd,[11],3.09 nM
same,Kd,[12],10.8 nM
VL GL + VH GL (VAR1 variant DuetMab) (bispecific antibody) chain 1: EVQLVESGGGLVQPGGSLRLSCAASGFTFSDYGMHWVRQAPGKGLEWVAYISSGSYTIYSADSVKGRFTISRDNAKNSLYLQMNSLRAEDTAVYYCARRAPNSFYEYYFDYWGQGTTVTVSS chain 2: QIVLTQSPATLSLSPGERATLSCSASSKHTNLYWSRHMYWYQQKPGQAPRLLIYLTSNRATGIPARFSGSGSGTDFTLTISSLEPEDFAVYYCQQWSSNPFTFGQGTKLEIK chain 3: QVQLVESGGGVVQPGRSLRLSCAASGFTFSSYAMHWVRQAPGKGLEWVAVISYAGEVKYYADSVKGRFTISRDNSKNTLYLQMNSLRAEDTAVYYCARDPLPLHYYGMDVWGQGTTVTVSS chain 4: QSVLTQPPSASGTPGQRVTISCSGSSSNMGRRPVNWYQQLPGTAPKLLIYSQNQRPSGVPDRFSGSQSGTSASLAISGLQSEDEADYFCAVWDDIGRVLQLGGGTQLTVL,Kd,[11],3.28 nM
same,Kd,[12],14.7 nM
VL GL + VH WT (VAR1 variant DuetMab) (bispecific antibody) chain 1: EVQLVESGGGLVQPGGSLRLSCAASGFTFSDYGMHWVRQAPGKGLEWVAYISSGSYTIYSADSVKGRFTISRDNAKNSLYLQMNSLRAEDTAVYYCARRAPNSFYEYYFDYWGQGTTVTVSS chain 2: QIVLTQSPATLSLSPGERATLSCSASSKHTNLYWSRHMYWYQQKPGQAPRLLIYLTSNRATGIPARFSGSGSGTDFTLTISSLEPEDFAVYYCQQWSSNPFTFGQGTKLEIK chain 3: EVQLVETGGGLIQPGRSLRLSCAASGFTFSSYAMHWVRQAPGKGLEWVAVISYAGEVKYYADSVKGRFTISRDNSKNTLYLQMNSLRAEDTAVYYCARDPLPLHYYGMDVWGQGTTVTVSS chain 4: QSVLTQPPSASGTPGQRVTISCSGSSSNMGRRPVNWYQQLPGTAPKLLIYSQNQRPSGVPDRFSGSQSGTSASLAISGLQSEDEADYFCAVWDDIGRVLQLGGGTQLTVL,EC50 (read off the curve),[13],~4 nM
same,Kd,[11],4.43 nM
same,Kd,[12],23.6 nM
"PD1-TIGIT duetMab LO115/P-VAR1(VHWT-VLWT) (bispecific antibody, V domains shown, DuetMab format; also called parental VAR1; P-VAR1 w.t; DuetMab) VH 1: EVQLVESGGGLVQPGGSLRLSCAASGFTFSDYGMHWVRQAPGKGLEWVAYISSGSYTIYSADSVKGRFTISRDNAKNSLYLQMNSLRAEDTAVYYCARRAPNSFYEYYFDYWGQGTTVTVSS VL 1: QIVLTQSPATLSLSPGERATLSCSASSKHTNLYWSRHMYWYQQKPGQAPRLLIYLTSNRATGIPARFSGSGSGTDFTLTISSLEPEDFAVYYCQQWSSNPFTFGQGTKLEIK VH 2: EVQLVETGGGLIQPGRSLRLSCAASGFTFSSYAMHWVRQAPGKGLEWVAVISYAGEVKYYADSVKGRFTISRDNSKNTLYLQMNSLRAEDTAVYYCARDPLPLHYYGMDVWGQGTTVTVSS VL 2: QSALTQPRSASGNPGQRVTISCSGSSSNMGRRPVNWYQQIPGTAPKLLIYSQNQRPSGVPDRFSGSQSGTSASLTISGLQSEDEAEYFCAVWDDIGRVLQLGGGTQLAVL",EC50 (read off the curve),[13],~2 nM
same,Kd,[14],0.0099 nM
same,koff,[14],4.64e-05 s⁻¹
same,kon,[14],4.67e+06 M⁻¹ s⁻¹
same,Kd,[15],32.1 nM
same,koff,[15],0.0329 s⁻¹
same,kon,[15],1.03e+06 M⁻¹ s⁻¹
same,Kd,[16],2.3 nM
same,koff,[16],0.00378 s⁻¹
same,kon,[16],1.66e+06 M⁻¹ s⁻¹
same,Kd,[11],2.56 nM
same,Kd,[12],11.2 nM

# From US12570744 (AstraZeneca / MedImmune, dated 2026)
